In the DeepSol protein solubility set:

Assay: soluble on expression in E. coli; label from the status in PepcDB or PDB records

| Sequence | soluble on expression in E. coli |
| --- | --- |
| MAHHHHHHMLTLNRRDKEICQELIRKNFTLSQIQSYNEPEYSGWVSRRRRVSNIFVWELNWLATSGNYLLCFSQKKDSCHPIKIMYLPEAIIRRCSMKEECCVGHPFVLEIVPCLHFVREEKGLFPVKPHEVHFSFENVEDLCGTIAFLAKISARHVRTASITFGPPTRVNHRIHLRAARGKNDFGLELLPLPMREWLLRQGITCAEMAGNETTALNCATTLYEVQMQRGMLEDLPPISEEGVTEKRYEDKAGVPPFPLPSENEGGALEPLLSAGDPESLFSDWERLDGGSQGEVFKAVRVVDGRKVAIKRITVRGDHKVPQSLVKEMSLLKALHHPNIVTLYDCYRKGKHLFLAMELMDGGKLTDLLIPSEGEPVEFTEAQLATLIREVLRALRCLHNARCVHRDVKSDNVLLSSNGEVKLGDFGFATLLTSPGGMRRTLVGTPYWMAPEVAGGKAYNDKADVWSAGILFLEMCDGQPPLMGMNPMRALLTVSTGPPPVMRTANRWSSLCREFASFLLVKDPARRPSVDDALRHPFIVKKAEPTCRFVATILQRRK | soluble |
| MLQGKAFLITGAGGALSRALIPAFHQAGARLFLSDPRPERMAERAQAVGAKTFVADLTRLEEALALARFVEEEAPLYGVVHTVGGFAAGRFLDTDPGLYDWMLDLNLRTTFNLLKAVLPYMAKRGEGFFAAFAAGPAWTGAGPGRALYTAAKTALASLLRSLQGEVEGVRFLVVYPMGTLDTEANRKAMPEADFSRWIAPELVAKVVVEAAGAKGGRLLELPIYPPL | soluble |
| MGSDKIHHHHHHDKDFGGLENIGWNEKPLQITTRILTTKSTNFIQEFKEGSMLGLQITSGTVDDLYNGISTYKNVSVKAYRVNGKIRWQQSPEVILDSNEATIYAYYPYQEDINFNARQIPVKLAPNALETDDYMYGTHAIGQKAVNSTSPLVLLSMNHALSLISFQLNLSKGKTGAFIISSVQVGNKPGGTTLVSEGTLDITTGDIIGSTARSTSASTVLSLTNPVTLINEKYCDPMRLMVIPPSGTIGTGDVETLFTINGETYKFDIPANTQWEKGKKYLYKLSFNGRSLQLRDVSITDWLPGNDEGLIGNIM | not soluble |
| MSYFGGLISTLFERRYQQALSDEVDSRTTCELCEALLSSHGEVSGVTLARNLLDRYAAMTEAEKTALFGFMAHDLEIDPDAVTHTLEAYKNNPGKDTYRAFAAACEPRRQELARRLNQVPGATGQLVQMRKDLLRMMKDHPDLEPVDVDFKHLFSSWFNRGFLVLRPIDWSSPANILEQIIAYEAVHEIDSWDELRRRLQPSDRRCFGFFHPSMADEPLIFVEVALTEGVPSSVQDLLADERDVITAQDADTAVFYSISNCQSGLAGISFGNSLIKQVVADLAKDLPGLTTFVTLSPIPGLNRWLQDADIDALKDADTQALAAHYLLEAKRSDGMPFDPVARFHLGNGALVHAVHAEADVSPNGRKQSNGAMVNYLYDLSQISQNHEKFVGDKIVVASTTVKALSGSVTTSLGTAAAAAALEHHHHHH | soluble |
| MDVKNAFVETAMGVLSEFGFSSVFAEKNETGGLVEAEYVNVVMGVNGAISGNLIMTAKKESALAIASAMLGGMEFTEVDDMVKSAIGELLNIIAGNAFSKVDVKAAVYISTPTLLIGEGISVLLQSPGTNKLVFDMDGQSMDVFLDIE | not soluble |
| MTEVNAFADTPWRAGVIQDFARSELFDRTFEEGMQLVEETAAYLDGAGRHDSKVLSRNAALGYATESMRLTTRLMQVASWLLVQRAVREGEMPPEAACAEAYRLAEEAPADGPAVEELPFGLMNLLQRSERLYERVRHLDRRMYVESPNEEAPRPVQNQLDRLTAAFGG | soluble |
| MSLKQLVVKIETDNGIIGWGEAQSPVSPNTTATIIKDIVEPLTIGKDIYDVESIWHNNYSAKRERGHYTGFYIDAICGVDIAIWDAIGKSLKMPTCKAMGGAHRKSVALYNGIGGTEPEEVADQAEWSVSKGYKFVKMHLKETLEKDIEIARKVRERVGDSIGIMIDVHMGFDTFNVTKLGKELEKLNLLWLESPSDPTDIPGLCEISRSLDIPIANGEWTRTKYEMREIFEKRAYDISMPDIARTGLTGGKQIASIAQLYNIPIAPHVGGGGIVSVASTLQFSLNTPNFLIMEHSEQGHAVKAMILSESFDAENGQYSLPNKPGLGIDVDENKLEKYKINPSEGHHHHHH | soluble |
